The source of these data is patent publication US20150337019.

Series [1] concerns MGO-modified MRJP (MRJP mixture treated with MGO).
The test system of series [2] is monomeric form of royalactin.
For series [3], the system named is native hexamer form of MRJP1.

For the substance Cathepsin B from bovine spleen, the “Cathepsin B digestion, native PAGE” value in series [1] is reported as “Cathepsin B is unable to hydrolyze the protein at pH 7.0 but was able to hydrolyze the lower molecular weight species produced at pH 4.0”. The “Cathepsin B digestion (data not shown)” value in series [2] was “the native hexamer form of MRJP1 and the monomeric form of royalactin were readily degraded by this enzyme”; in series [3] it was “the native hexamer form of MRJP1 and the monomeric form of royalactin were readily degraded by this enzyme”.
